Assay results: doi:10.1101/2025.11.13.688252, “Cap1 forms a cyclic tetra-adenylate-induced membrane pore during the type III-A CRISPR-Cas immune response” (bioRxiv, 2025)

Experiments:
[1] = target: Cap1 (CRISPR-associated pore 1), full-length, C-terminal His6 tag (Parafilimonas terrae); test: cryo-EM structure; apo-Cap1 in GDN, 200 μM protein, 0.5 mM FOM detergent added for grids; map at 3.4 Å, C1 symmetry
[2] = target: Cap1 (CRISPR-associated pore 1), full-length, C-terminal His6 tag (Parafilimonas terrae); test: cryo-EM structure; Cap1 in GDN, 150 μM (as monomer) with 800 μM cA4, 30 min on ice; two classes: 2.9 Å (C4; DUF4579 not visible) and 3.6 Å (C4; DUF4579 visible, TM1 not resolved)
[3] = target: Cap1 (CRISPR-associated pore 1), full-length, C-terminal His6 tag (Parafilimonas terrae); test: SEC-MALS; conjugate SEC-MALS (protein conjugate method) of apo-Cap1 without cOA ligand; Superdex200 10/300 increase; 25 mM Hepes pH 8, 200 mM NaCl, 2 mM β-mercaptoethanol, 5 % glycerol, 375 μM GDN
[4] = target: T1, Cap1 (CRISPR-associated pore 1) (Parafilimonas terrae, UniProt A0A1I5TJE5, Q118A); test: ITC with purified CARFL Q118A domain; assay type: binding
T1 construct: gene SAMN05444277_102160; CARFL domain (residues 85–220), His6-tagged

[5] = target: T2, Cap1 (CRISPR-associated pore 1) (Parafilimonas terrae, UniProt A0A1I5TJE5); test: ITC with purified CARFL domain; cryo-EM structure of cA4-bound full-length tetramer ([…] Å); assay type: binding
T2 construct: gene SAMN05444277_102160; ITC: CARFL domain (residues 85–220), His6-tagged; cryo-EM: full-length Cap1-His6 in GDN, homotetramer
T2 sequence (A0A1I5TJE5 85-220): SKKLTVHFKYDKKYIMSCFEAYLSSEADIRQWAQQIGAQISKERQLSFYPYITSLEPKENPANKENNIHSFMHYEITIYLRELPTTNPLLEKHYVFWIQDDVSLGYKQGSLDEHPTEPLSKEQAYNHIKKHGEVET

| Molecule | stoichiometry N [1] | stoichiometry N [2] | stoichiometry N [3] | Kd [4] [nM] | Kd [5] [nM] |
| --- | --- | --- | --- | --- | --- |
| Cap1 (CRISPR-associated pore 1), full-length, C-terminal His6 tag (natural protein) | 4 | 4 | 4 |  |  |
| Nc1ncnc2c1ncn2[C@@H]1O[C@@H]2COP(=O)(O)O[C@H]3[C@@H](O)[C@H](n4cnc5c(N)ncnc54)O[C@@H]3COP(=O)(O)O[C@H]3[C@@H](O)[C@H](n4cnc5c(N)ncnc54)O[C@@H]3COP(=O)(O)O[C@H]3[C@@H](O)[C@H](n4cnc5c(N)ncnc54)O[C@@H]3COP(=O)(O)O[C@H]2[C@H]1O [cA4, cyclic tetra-adenylate] |  |  |  | ~1200 | ~33 |
